The test system of data set [1] is HHH peptide (biotinylated histidine trimer) (synthetic).
Data set [2] shares this test system. The following applies: quantum dot multivalent probe.

pEC50: −log10 of the molar value. Read-outs that look alike come from different tables or passages of the source.

The pEC50 is the negative decadic logarithm of the EC50, by convention in mol/L. Low values mean a high EC50, high ones a low EC50.

Turning to “CAAGCAGAAGACGGCATACGAGATCATGCTTCCCCAGGGAGATGGTTTGCCGGTGGGCAGGTTTAGGGTCTGCTCGGGATTGCGGAGGAACATGCGTCGCAAACGTGTAGATCTCGGTGGTCGCCGTATCATT [P7-B1-P5 aptamer]”, the pEC50 in data set [1] (single aptamer on SureLight APC) is 8.64; in data set [1] (single aptamer on streptavidin-APC) it was 7.52; in data set [1] (single aptamer on streptavidin-Alexa Fluor 647) it was 7.55; in data set [2], 7.22.
